This note sets out measurements from article PMC8405992 (2021).

Holding throughout (assay): NMR titration
For one assay, the target named is T1, Dsk2-UBL 2-77 (Saccharomyces cerevisiae, UniProt P48510).
T1 chain: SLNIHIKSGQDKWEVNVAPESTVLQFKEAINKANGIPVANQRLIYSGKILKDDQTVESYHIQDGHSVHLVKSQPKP

For the next assay, the target named is T2, Ubp6-UBL 2-81 (Saccharomyces cerevisiae, UniProt P43593).
T2 chain: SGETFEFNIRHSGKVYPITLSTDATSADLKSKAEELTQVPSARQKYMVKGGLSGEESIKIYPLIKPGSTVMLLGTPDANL

In another assay the target is K11-linked diubiquitin (Homo sapiens, UniProt P0CG48).
In the next assay the target is K48-linked diubiquitin (Homo sapiens, UniProt P0CG48).

B1: Rpn1 214-355 (protein)
chain: HNGEEDAVDLLLEIESIDKLPQFVDENTFQRVCQYMVACVPLLPPPEDVAFLKTAYSIYLSQNELTDAIALAVRLGEEDMIRSVFDATSDPVMHKQLAYILAAQKTSFEYEGVQDIIGNGKLSEHFLYLAKELNLTGPKVPE
Consider B1, for which the Kd came out at 48 µM in the assay with Dsk2-UBL 2-77 and 104 µM with Ubp6-UBL 2-81.

B2: Rpn1 214-355 (protein)
chain: HNGEEDAVDLLLEIESIDKLPQFVDENTFQRVCQYMVACVPLLPPPEDVAFLKTAYSIYLSQNELTDAIALAVRLGEEDMIRSVFDATSDPVMHKQLAYILAAQKTSFEYEGVQDIIGNGKLSEHFLYLAKELNLTGPKVPE
modifications: K11-linked Ub2, distal Ub 15N-enriched
Consider B2, for which the dissociation constant (Kd) in the assay with K11-linked diubiquitin amounted to 44 µM.

B3: Rpn1 214-355 (protein)
chain: HNGEEDAVDLLLEIESIDKLPQFVDENTFQRVCQYMVACVPLLPPPEDVAFLKTAYSIYLSQNELTDAIALAVRLGEEDMIRSVFDATSDPVMHKQLAYILAAQKTSFEYEGVQDIIGNGKLSEHFLYLAKELNLTGPKVPE
modifications: K48-linked Ub2, distal Ub 15N-enriched
B3 registered a Kd with K48-linked diubiquitin of 288 µM.

B4: Rpn1 214-324 (protein)
chain: HNGEEDAVDLLLEIESIDKLPQFVDENTFQRVCQYMVACVPLLPPPEDVAFLKTAYSIYLSQNELTDAIALAVRLGEEDMIRSVFDATSDPVMHKQLAYILAAQKTSFEYE
modifications: K11-linked Ub2, distal Ub 15N-enriched
The molecule B4 had a dissociation constant (Kd) in the assay with K11-linked diubiquitin of 42 µM.
